B1: Alpha-lactalbumin, P00712 (parent)
chain: MMSFVSLLLVGILFHATQAEQLTKCEVFQKLKDLKDYGGVSLPEWVCTAFHTSGYDTQAIVQNNDSTEYGLFQINNKIWCKDDQNPHSRNICNISCDKFLDDDLTDDIVCAKKILDKVGINYWLAHKALCSEKLDQWLCEKL

Variants of: B1
Settings: Capra hircus; pH 2; 20 °C; Urea; CD; NaCl-HCl 100 mM; structure 1HFY; whole UniProt chain shown

MMSFVSLLLVGILFHATQAEQLTKCEVFQKLKDLKDYGGVSLPEWVCTTFHTSGYDTQAIVQNNDSTEYGLFQINNKIWCKDDQNPHSRNICNISCDKFLDDDLTDDIVCAKKILDKVGINYWLAHKALCSEKLDQWLCEKL
ddG of mutation (higher = less stable): 0.14 kcal/mol
denaturant m value: 0.29 kcal/mol/M
denaturant midpoint (higher = more stable): 1.9 M
unfolding free energy: 0.56 kcal/mol

MMSFVSLLLVGILFHATQAEQLTKCEVFQKLKDLKDYGGVSLPEWVCTIFHTSGYDTQAIVQNNDSTEYGLFQINNKIWCKDDQNPHSRNICNISCDKFLDDDLTDDIVCAKKILDKVGINYWLAHKALCSEKLDQWLCEKL
ddG of mutation (higher = less stable): -0.3 kcal/mol
denaturant m value: 0.33 kcal/mol/M
denaturant midpoint (higher = more stable): 3 M
unfolding free energy: 1 kcal/mol

MMSFVSLLLVGILFHATQAEQLTKCEVFQKLKDLKDYGGVSLPEWVCTAFHISGYDTQAIVQNNDSTEYGLFQINNKIWCKDDQNPHSRNICNISCDKFLDDDLTDDIVCAKKILDKVGINYWLAHKALCSEKLDQWLCEKL
ddG of mutation (higher = less stable): -0.32 kcal/mol
denaturant m value: 0.39 kcal/mol/M
denaturant midpoint (higher = more stable): 2.6 M
unfolding free energy: 1.02 kcal/mol

MMSFVSLLLVGILFHATQAEQLTKCEVFQKLKDLKDYGGVSLPEWVCIAFHTSGYDTQAIVQNNDSTEYGLFQINNKIWCKDDQNPHSRNICNISCDKFLDDDLTDDIVCAKKILDKVGINYWLAHKALCSEKLDQWLCEKL
ddG of mutation (higher = less stable): -0.07 kcal/mol
denaturant m value: 0.31 kcal/mol/M
denaturant midpoint (higher = more stable): 2.5 M
unfolding free energy: 0.77 kcal/mol

— FireProtDB (doi:10.1093/protein/8.11.1153)
